Measurements reported in publication PMC11151596, “Improving the enzymatic activity and stability of N-carbamoyl hydrolase using deep learning approach” (Microbial Cell Factories, 2024).

What follows are substances tested on T1, NC(=O)NC(C(=O)O)c1ccc(O)cc1 (assay: HPLC of D-HPG formed, double reciprocal plot). Conditions: 50 mM Tris-HCl pH 7.5, 65 °C, 0.1-10.0 mM CpHPG.
T1 construct: pET-28a(+)-Case, N- and C-terminal His6 tags, expressed in E. coli BL21(DE3), Ni-NTA purified, about 37 kDa
Format: biochemical, Agrobacterium sp. KNK712
Excerpt: HPLC of D-HPG formed, double reciprocal plot on DCase (N-carbamoyl-D-amino acid amidohydrolase, EC 3.5.1.77; N-carbamoyl hydrolase)
Substance “DCase (N-carbamoyl-D-amino acid amidohydrolase, EC 3.5.1.77; N-carbamoyl hydrolase) (Agrobacterium sp. KNK712; A302C/Q4C/T212A)” has a Km of 2.38 ± 0.62 mM, a kcat of 30.4 ± 0.703 s⁻¹ and a kcat/Km of 12800 ± 572 M⁻¹ s⁻¹. “DCase (N-carbamoyl-D-amino acid amidohydrolase, EC 3.5.1.77; N-carbamoyl hydrolase) (Agrobacterium sp. KNK712; A302C/Q4C/T212V)” gave a Km of 2.19 ± 0.26 mM, a kcat of 32.9 ± 0.658 s⁻¹ and a kcat/Km of 15000 ± 1200 M⁻¹ s⁻¹. For “DCase (N-carbamoyl-D-amino acid amidohydrolase, EC 3.5.1.77; N-carbamoyl hydrolase) (Agrobacterium sp. KNK712; A302C/Q4C/T212S)”, the Km was 2.12 ± 0.26 mM, the kcat was 38.1 ± 0.658 s⁻¹ and the kcat/Km was 18000 ± 722 M⁻¹ s⁻¹. “DCase (N-carbamoyl-D-amino acid amidohydrolase, EC 3.5.1.77; N-carbamoyl hydrolase) (Agrobacterium sp. KNK712; A302C/Q4C/T212G)” gave a Km of 2.34 ± 0.26 mM, a kcat of 36.7 ± 0.658 s⁻¹ and a kcat/Km of 15700 ± 939 M⁻¹ s⁻¹. Work on “DCase (N-carbamoyl-D-amino acid amidohydrolase, EC 3.5.1.77; N-carbamoyl hydrolase) (Agrobacterium sp. KNK712; Q4C)” yielded a Km of 2.44 ± 0.46 mM, a kcat of 12.6 ± 0.371 s⁻¹ and a kcat/Km of 5150 ± 265 M⁻¹ s⁻¹. Work on “DCase (N-carbamoyl-D-amino acid amidohydrolase, EC 3.5.1.77; N-carbamoyl hydrolase) (Agrobacterium sp. KNK712; A302C/Q4C)” yielded a Km of 2.56 ± 0.15 mM, a kcat of 29.2 ± 0.733 s⁻¹ and a kcat/Km of 11400 ± 516 M⁻¹ s⁻¹.
